In assay [1] the target is T1, N-terminal Smac/DIABLO(1–15) peptide.
T1 sequence (Q9NR28 22-36, species assumed, looked up): LCVPVVANFKKRCFS
Kind of assay: ITC.

The target of assay [2] is Survivin 1-142 (UniProt O15392). Kind of assay: peptide-bead pull-down, Coomassie stain.
The target of assay [3] is Survivin H80A mutant (human, UniProt O15392 1-142, H80A). Description: ITC.
In assay [4] the target is Survivin W67A mutant (human, UniProt O15392 1-142, W67A). Description: ITC. In general terms: Isothermal titration calorimetry measures the heat released or taken up as one component is titrated into another.
The target in assay [5] is Survivin E63A mutant (human, UniProt O15392 1-142, E63A). Kind of assay: ITC.
The target of assay [6] is Survivin L64A mutant (human, UniProt O15392 1-142, L64A). Kind of assay: ITC.

Where no end group is shown, it is not given here. [ ]: non-standard residue; d: D form. pT = C[C@@H](OP(=O)(O)O)[C@H](N)C(=O)O

The Kd is a measure of binding affinity in units of concentration.

Chain of human Survivin (wild type) (O15392 whole entry): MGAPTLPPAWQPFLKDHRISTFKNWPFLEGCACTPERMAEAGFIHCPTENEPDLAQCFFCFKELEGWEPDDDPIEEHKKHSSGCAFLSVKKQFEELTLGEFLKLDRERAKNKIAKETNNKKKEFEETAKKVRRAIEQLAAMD
Chain of Survivin W67A mutant (O15392 whole entry W67A): as the sequence (O15392 whole entry) above, with W67A counted along it
Chain of Survivin L64A mutant (O15392 whole entry L64A): as the sequence (O15392 whole entry) above, with L64A counted along it
Chain of Survivin E63A mutant (O15392 whole entry E63A): as the sequence (O15392 whole entry) above, with E63A counted along it
Chain of Survivin H80A mutant (O15392 whole entry H80A): as the sequence (O15392 whole entry) above, with H80A counted along it

As for “Survivin(K62Y/H80W) double mutant (from UniProt O15392 1-142) (natural protein)”, in assay [1], the Kd is 19.8 µM and the dH was -4.44 kcal/mol.
“histone H3 (from UniProt P68431) H3T3ph peptide beads”: the “binding against the reference” value in assay [2] (reference: unmodified H3 peptide beads, sites T3) was “same”.
As for “histone H3 (from UniProt P68431) S10ph H3 peptide beads (T3 state not stated)”, in assay [2] (reference: H3 peptide beads without S10ph, sites S10), the “binding against the reference” value was “same”.
As for “human Survivin (wild type) (from UniProt O15392 1-142) (natural protein)”, in assay [1], the equilibrium dissociation constant (Kd) came out at 121 µM and the dH was -3.48 kcal/mol.
For AR[pT]KQTARKSTGGKA (peptide, UniProt P68431 2-16, looked up) [H3(1–15)T3ph peptide], the Kd in assay [3], in assay [4], in assay [5] and in assay [6] was > 200 µM each time.

Values taken from publication PMC3684423 (Structure (London, England : 1993), 2012).
